Assay results taken from article PMC9482650, “Quantitative fragmentomics allow affinity mapping of interactomes” (Nature Communications, 2022).

Legend:
Assay in all cases: holdup assay
Design in all cases: key: below the threshold = too weak to quantify, mostly under pKd 3.1 to 4
MAGI1_5, Q96QZ7 = target: MAGI1_5, Q96QZ7
MPP5, Q8N3R9 = target: T1, MPP5, Q8N3R9
T1 sequence (Q8N3R9 251-346, limits assumed, looked up): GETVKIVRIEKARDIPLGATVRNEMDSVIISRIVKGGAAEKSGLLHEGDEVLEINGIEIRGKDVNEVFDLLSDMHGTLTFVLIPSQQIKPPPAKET

PDZD2_3, O15018 = target: T2, PDZD2_3, O15018
T2 sequence (O15018 581-682, limits assumed, looked up): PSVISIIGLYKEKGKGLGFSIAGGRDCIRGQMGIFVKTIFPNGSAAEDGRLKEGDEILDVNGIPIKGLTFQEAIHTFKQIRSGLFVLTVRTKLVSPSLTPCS

DLG5_2, Q8TDM6 = target: DLG5_2, Q8TDM6
Sequence of DLG5_2, Q8TDM6 (Q8TDM6 714-800): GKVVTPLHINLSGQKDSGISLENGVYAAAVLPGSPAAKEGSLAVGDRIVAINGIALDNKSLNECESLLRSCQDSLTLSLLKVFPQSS

GIPC1, O14908 = target: T3, GIPC1, O14908
T3 sequence (O14908 128-223, limits assumed, looked up): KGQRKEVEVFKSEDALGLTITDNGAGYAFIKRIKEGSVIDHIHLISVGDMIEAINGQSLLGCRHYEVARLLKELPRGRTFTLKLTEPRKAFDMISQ

CARD14, Q9BXL6 = target: CARD14, Q9BXL6
Sequence of CARD14, Q9BXL6 (Q9BXL6 558-663): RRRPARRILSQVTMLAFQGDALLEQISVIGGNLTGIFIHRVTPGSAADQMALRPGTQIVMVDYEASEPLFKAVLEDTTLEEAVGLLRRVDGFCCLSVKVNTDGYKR

MLLT4, P55196 = target: T4, MLLT4, P55196
T4 sequence (P55196 1002-1103, limits assumed, looked up): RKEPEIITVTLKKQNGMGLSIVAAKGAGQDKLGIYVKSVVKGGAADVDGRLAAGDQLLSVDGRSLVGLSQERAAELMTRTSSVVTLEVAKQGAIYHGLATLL

LMO7, Q8WWI1 = target: LMO7, Q8WWI1
Sequence of LMO7, Q8WWI1 (Q8WWI1 1037-1138): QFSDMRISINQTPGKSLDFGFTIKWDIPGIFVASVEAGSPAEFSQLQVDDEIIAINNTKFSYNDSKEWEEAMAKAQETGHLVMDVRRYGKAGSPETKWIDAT

PREX1_1, Q8TCU6 = target: PREX1_1, Q8TCU6
Sequence of PREX1_1, Q8TCU6 (Q8TCU6 608-718): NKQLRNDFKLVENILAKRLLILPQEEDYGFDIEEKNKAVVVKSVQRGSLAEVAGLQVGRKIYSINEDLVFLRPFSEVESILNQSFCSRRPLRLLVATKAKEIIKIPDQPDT

USH1C_3, Q9Y6N9 = target: T5, USH1C_3, Q9Y6N9
T5 sequence (Q9Y6N9 447-547, limits assumed, looked up): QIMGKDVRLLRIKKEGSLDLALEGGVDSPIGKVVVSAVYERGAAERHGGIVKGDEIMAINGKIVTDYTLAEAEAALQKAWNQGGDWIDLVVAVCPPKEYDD

PDLIM4, P50479 = target: PDLIM4, P50479
Sequence of PDLIM4, P50479 (P50479 1-83): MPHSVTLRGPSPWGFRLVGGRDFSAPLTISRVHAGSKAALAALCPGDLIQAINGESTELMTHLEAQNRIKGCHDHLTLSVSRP

SCRIB_4, Q14160 = target: SCRIB_4, Q14160
Sequence of SCRIB_4, Q14160 (Q14160 1095-1204): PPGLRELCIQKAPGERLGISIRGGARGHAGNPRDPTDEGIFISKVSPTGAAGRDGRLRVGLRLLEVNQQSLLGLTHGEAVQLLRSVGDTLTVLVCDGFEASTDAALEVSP

MAGI3_6, Q5TCQ9 = target: MAGI3_6, Q5TCQ9
Sequence of MAGI3_6, Q5TCQ9 (Q5TCQ9 1014-1103): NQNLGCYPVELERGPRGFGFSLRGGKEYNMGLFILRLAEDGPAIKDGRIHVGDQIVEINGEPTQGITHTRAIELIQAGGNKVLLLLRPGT

PDLIM3, Q53GG5 = target: T6, PDLIM3, Q53GG5
T6 sequence (Q53GG5 1-94, limits assumed, looked up): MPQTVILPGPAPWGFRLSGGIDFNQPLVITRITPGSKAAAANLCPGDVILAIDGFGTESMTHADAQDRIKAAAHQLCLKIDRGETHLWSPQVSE

MPDZ_7, O75970 = target: T7, MPDZ_7, O75970
T7 sequence (O75970 1146-1253, limits assumed, looked up): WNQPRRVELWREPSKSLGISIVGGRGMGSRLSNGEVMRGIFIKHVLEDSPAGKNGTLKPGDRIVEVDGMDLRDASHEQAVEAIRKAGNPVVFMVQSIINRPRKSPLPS

DLG2_1, Q15700 = target: DLG2_1, Q15700
NHERF1_2, O14745 = target: T8, NHERF1_2, O14745
T8 sequence (O14745 149-244, limits assumed, looked up): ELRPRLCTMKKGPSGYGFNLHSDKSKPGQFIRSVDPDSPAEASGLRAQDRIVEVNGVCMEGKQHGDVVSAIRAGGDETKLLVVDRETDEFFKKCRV

PREX2_2, Q70Z35 = target: T9, PREX2_2, Q70Z35
T9 sequence (Q70Z35 672-764, limits assumed, looked up): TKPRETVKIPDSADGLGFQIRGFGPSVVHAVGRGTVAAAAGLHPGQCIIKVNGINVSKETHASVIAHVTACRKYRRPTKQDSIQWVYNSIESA

MAGI1_6, Q96QZ7 = target: MAGI1_6, Q96QZ7
Sequence of MAGI1_6, Q96QZ7 (Q96QZ7 1146-1238): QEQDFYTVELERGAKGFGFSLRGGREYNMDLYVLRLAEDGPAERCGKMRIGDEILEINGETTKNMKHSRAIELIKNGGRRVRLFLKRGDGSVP

MPDZ_6, O75970 = target: T10, MPDZ_6, O75970
T10 sequence (O75970 1003-1099, limits assumed, looked up): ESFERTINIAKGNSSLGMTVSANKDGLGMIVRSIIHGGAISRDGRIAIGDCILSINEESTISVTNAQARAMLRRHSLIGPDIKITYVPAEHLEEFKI

TIAM2, Q8IVF5 = target: T11, TIAM2, Q8IVF5
T11 sequence (Q8IVF5 885-986, limits assumed, looked up): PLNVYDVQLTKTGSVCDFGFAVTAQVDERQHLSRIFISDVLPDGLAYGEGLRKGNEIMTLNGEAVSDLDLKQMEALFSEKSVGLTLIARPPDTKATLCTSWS

GRIP2_2, Q9C0E4 = target: GRIP2_2, Q9C0E4
Sequence of GRIP2_2, Q9C0E4 (Q9C0E4 137-245): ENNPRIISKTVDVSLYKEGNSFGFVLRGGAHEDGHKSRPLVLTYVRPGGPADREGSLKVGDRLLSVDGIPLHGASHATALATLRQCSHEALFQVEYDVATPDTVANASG

TJP1_1, Q07157 = target: TJP1_1, Q07157
Sequence of TJP1_1, Q07157 (Q07157 18-120): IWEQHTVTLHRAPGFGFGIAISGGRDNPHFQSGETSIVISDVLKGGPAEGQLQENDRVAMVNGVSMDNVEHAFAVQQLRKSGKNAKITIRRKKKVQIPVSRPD

PTPN13_4, Q12923 = target: T12, PTPN13_4, Q12923
T12 sequence (Q12923 1783-1878, limits assumed, looked up): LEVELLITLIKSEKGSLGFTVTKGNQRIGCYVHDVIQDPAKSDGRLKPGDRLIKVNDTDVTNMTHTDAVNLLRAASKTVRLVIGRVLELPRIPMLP

[1] = plain residues with an end cap or a label only (N-terminal biotin on a linker: none)
[2] = plain residues with an end cap or a label only (N-terminal biotin on a linker: ttds)

Sequence of MAGI1_5, Q96QZ7 (Q96QZ7 986-1098): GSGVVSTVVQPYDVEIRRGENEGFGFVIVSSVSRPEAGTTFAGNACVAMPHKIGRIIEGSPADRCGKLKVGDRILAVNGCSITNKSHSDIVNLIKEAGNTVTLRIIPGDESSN

## DSKPPLPPDEWV [MERS-E, K9N5R3]
MAGI1_5, Q96QZ7; [1]
  pKd: below the threshold
MPP5, Q8N3R9; [1]
  pKd: 4.03
PDZD2_3, O15018; [1]
  pKd: 3.89
DLG5_2, Q8TDM6; [1]
  pKd: 4
GIPC1, O14908; [1]
  pKd: below the threshold
CARD14, Q9BXL6; [1]
  pKd: below the threshold
MLLT4, P55196; [1]
  pKd: below the threshold
LMO7, Q8WWI1; [1]
  pKd: below the threshold
PREX1_1, Q8TCU6; [1]
  pKd: below the threshold
USH1C_3, Q9Y6N9; [1]
  pKd: below the threshold
PDLIM4, P50479; [1]
  pKd: 3.83
SCRIB_4, Q14160; [1]
  pKd: 3.92
MAGI3_6, Q5TCQ9; [1]
  pKd: 4.03
PDLIM3, Q53GG5; [1]
  pKd: below the threshold
MPDZ_7, O75970; [1]
  pKd: 3.83
DLG2_1, Q15700; [1]
  pKd: below the threshold
NHERF1_2, O14745; [1]
  pKd: below the threshold
PREX2_2, Q70Z35; [1]
  pKd: below the threshold
MAGI1_6, Q96QZ7; [1]
  pKd: 4.66
MPDZ_6, O75970; [1]
  pKd: below the threshold
TIAM2, Q8IVF5; [1]
  pKd: below the threshold
GRIP2_2, Q9C0E4; [1]
  pKd: below the threshold
TJP1_1, Q07157; [1]
  pKd: below the threshold
PTPN13_4, Q12923; [1]
  pKd: 4.11

## HRTCYLVTQL [ASIC3, Q9UHC3]
MAGI1_5, Q96QZ7; [2]
  pKd: 5.13
MPP5, Q8N3R9; [2]
  pKd: below the threshold
PDZD2_3, O15018; [2]
  pKd: below the threshold
DLG5_2, Q8TDM6; [2]
  pKd: below the threshold
GIPC1, O14908; [2]
  pKd: below the threshold
CARD14, Q9BXL6; [2]
  pKd: below the threshold
MLLT4, P55196; [2]
  pKd: below the threshold
LMO7, Q8WWI1; [2]
  pKd: below the threshold
PREX1_1, Q8TCU6; [2]
  pKd: 3.99
USH1C_3, Q9Y6N9; [2]
  pKd: below the threshold
PDLIM4, P50479; [2]
  pKd: below the threshold
SCRIB_4, Q14160; [2]
  pKd: below the threshold
MAGI3_6, Q5TCQ9; [2]
  pKd: below the threshold
PDLIM3, Q53GG5; [2]
  pKd: below the threshold
MPDZ_7, O75970; [2]
  pKd: 4.73
DLG2_1, Q15700; [2]
  pKd: below the threshold
NHERF1_2, O14745; [2]
  pKd: 4.35
PREX2_2, Q70Z35; [2]
  pKd: below the threshold
MAGI1_6, Q96QZ7; [2]
  pKd: below the threshold
MPDZ_6, O75970; [2]
  pKd: below the threshold
TIAM2, Q8IVF5; [2]
  pKd: 3.3
GRIP2_2, Q9C0E4; [2]
  pKd: 4.28
TJP1_1, Q07157; [2]
  pKd: 4.17
PTPN13_4, Q12923; [2]
  pKd: below the threshold

## RTRQRNETQV [HPV51-E6, P26554]
MAGI1_5, Q96QZ7; [2]
  pKd: below the threshold
MPP5, Q8N3R9; [2]
  pKd: below the threshold
PDZD2_3, O15018; [2]
  pKd: 4.22
DLG5_2, Q8TDM6; [2]
  pKd: 4.63
GIPC1, O14908; [2]
  pKd: 5.1
CARD14, Q9BXL6; [2]
  pKd: 4.34
MLLT4, P55196; [2]
  pKd: below the threshold
LMO7, Q8WWI1; [2]
  pKd: below the threshold
PREX1_1, Q8TCU6; [2]
  pKd: below the threshold
USH1C_3, Q9Y6N9; [2]
  pKd: 4.16
PDLIM4, P50479; [2]
  pKd: below the threshold
SCRIB_4, Q14160; [2]
  pKd: 4.27
MAGI3_6, Q5TCQ9; [2]
  pKd: below the threshold
PDLIM3, Q53GG5; [2]
  pKd: below the threshold
MPDZ_7, O75970; [2]
  pKd: below the threshold
DLG2_1, Q15700; [2]
  pKd: 5.06
NHERF1_2, O14745; [2]
  pKd: below the threshold
PREX2_2, Q70Z35; [2]
  pKd: below the threshold
MAGI1_6, Q96QZ7; [2]
  pKd: below the threshold
MPDZ_6, O75970; [2]
  pKd: below the threshold
TIAM2, Q8IVF5; [2]
  pKd: below the threshold
GRIP2_2, Q9C0E4; [2]
  pKd: below the threshold
TJP1_1, Q07157; [2]
  pKd: below the threshold
PTPN13_4, Q12923; [2]
  pKd: below the threshold
